Measurements as given in patent US7625707B2, “Antibacterial agents and methods of identifying and utilizing same” (Ramot At Tel Aviv University Ltd., priority 2003, dated 2009).

T1: GST-YoeB fusion protein (Escherichia coli, UniProt P69348)
T1 construct: made in house; host or cells: E. coli BL21(DE3) pLysS
T1 sequence (P69348 1-84): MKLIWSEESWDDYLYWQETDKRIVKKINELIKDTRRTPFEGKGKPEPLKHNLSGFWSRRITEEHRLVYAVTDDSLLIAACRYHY

B1: YoeB: E. coli toxin polypeptide, SEQ ID NO: 77 (protein, listed as Escherichia coli)
chain: T1 sequence (P69348 1-84)
B2: YefM and YoeB: toxin-antitoxin pair co-overexpressed in E. coli TOP10 from pBAD-yefMyoeB (protein, UniProt P69346 1-83; P69348 1-84, looked up)
Antitoxin YefM: MRTISYSEARQNLSATMMKAVEDHAPILITRQNGEACVLMSLEEYNSLEETAYLLRSPANARRLMDSIDSLKSGKGTEKDIIE
Toxin YoeB: T1 sequence (P69348 1-84)
B3: YoeB-His: YoeB toxin expressed in fusion to myc-epitope and his-tag (protein)
chain: T1 sequence (P69348 1-84)
modifications: left off: small tags and cut ends
B4: YefM: E. coli antitoxin polypeptide, 92 amino acids, SEQ ID NO: 76, natively unfolded (protein, listed as Escherichia coli)
chain: MNCTKEEIDMRTISYSEARQNLSATMMKAVEDHAPILITRQNGEACVLMSLEEYNSLEETAYLLRSPANARRLMDSIDSLKSGKGTEKDIIE

Legend:
[1] = target: T1, GST-YoeB fusion protein; experiment: Peptide array analysis of YefM tridecamer peptides probed with GST-YoeB; format: binding, E. coli
Experimental: Peptide array analysis: Tridecamer peptides corresponding to consecutive overlapping sequences of the YefM polypeptide were arrayed on a cellulose membrane matrix and covalently bound to a Whatman 50 cellulose support (Whatman). Approximately 50 μg aliquots of soluble GST-YoeB fusion were examined for their selective peptide binding ability, on the basis of YefM-YoeB putative interaction.
For low stringency binding the cellulose membrane was briefly washed in 100% ethanol, washed three times with Tris-buffered saline (TBS; 50 mM Tris-HCl pH 7.5, 150 mM NaCl), then blocked for 4 hours using 5% (w/v) non-fat milk in TBS. The membrane was then washed three times in TBS+0.1% (v/v) tween 20 (TBS-T) and incubated with 10 ml GST-YoeB solution at 4° C. and slow shaking for 14 hours.
For high stringency binding the washing steps were extensive and multiple and the blocking solution washing step was reduced to a single brief wash.
Following incubation, the membrane was washed once in TBS-T then supplemented with 10 ml suspension comprising TBS, mouse anti-GST antibody and horseradish peroxidase conjugated goat anti-mouse antibody in the appropriate titers. Following 1 hour incubation at room temperature the membrane was briefly washed with TBS-T and TBS. Bound GST-YoeB proteins were detected through an enhanced chemiluminescence reaction following an exposure to a sensitive film.

[2] = test system: E. coli TOP10; experiment: Growth rate analysis of bacteria overexpressing YefM, YoeB or both; conditions: 0.2% L-arabinose induction compared with 0.2% glucose control, LB-Amp, 37° C.
Experimental: (§1) The generated constructs were introduced to E. coli strain TOP10.
Growth rate analysis: E. coli TOP10 bacteria transformed with pBAD-yefM, pBAD-yoeB, and pBAD-yefMyoeB were cultured in LB broth supplemented with 100 μg/ml ampicillin (LB-Amp) and incubated at 37° C. overnight. Following incubation, cultures were diluted in fresh LB-Amp and their optical density was adjusted to approximately 0.01 (A600). Each culture was then divided into two equal volumes. One volume was supplemented with 0.2% L-arabinose to induce expression of the target gene and the second volume was supplemented with 0.2% D-glucose to suppress expression. All cultures were incubated at 37° C. and 200 rpm for up to 9 hours. Cell density was estimated periodically by optical absorbance at 600 nm. The effect of target gene induction on bacterial growth during the logarithmic growth phase was determined as described above with the exception that cultures were divided and supplemented with 0.2% L-arabinose, or 0.2% D-glucose at the time they had reached optical density of approximately 0.45 (A600).

[3] = test system: E. coli TOP10; experiment: Colony formation analysis of bacteria overexpressing YefM, YoeB or both; conditions: L-arabinose 0.0005-0.2% on LB-Amp agar, 37° C., 20 hours
Experimental: as §1
Colony formation analysis: E. coli TOP10 bacteria harboring pBAD-yefM, pBAD-yoeB, or pBAD-yefMyoeB, were cultured in LB-Amp and incubated at 37° C. overnight Following incubation the cultures were diluted to an A600 of 0.01 in a fresh LB-Amp and incubated at 37° C. until an absorbance of 0.5 at A600 was reached. The cultures were then diluted in ten-fold dilutions steps and applied as 5 μl droplets on LB-Amp agar plates containing L-arabinose at a concentration gradient of 0.2%, 0.1%, 0.05%, 0.02%, 0.005% and 0.0005%. An LB-Amp agar plate containing 0.2% glucose was used as a negative control. All plates were incubated at 37° C. for at least 20 hours.

[4] = Thermal denaturation monitored by CD ellipticity at 222 nm; format: physicochemical; conditions: PBS pH 7.3
Experimental: Circular Dichroism (CD): CD spectra were obtained by using an AVIV 202 spectrapolarimeter equipped with temperature-controlled sample holder and a 5 mm path length cuvette. Mean residual ellipticity, [θ], was calculated as, [θ]=[100×θ×m]/[c×L]
The identity of YefM and YoeB-His was verified using protein spots isolation from Coomassie blue stained gels and was accomplished by mass spectrometry, according to established protocols (Bandow, J. E., Becher, D., Buttner, K, Hochgrafe, F., Freiberg, C., Brotz, H. and Hecker, M. (2003) Proteomics. 3, 299-306). Briefly, protein spots were excised from stained gels and the gel pieces were treated trypsin solution (Pomega) for 16 h at 37° C. Peptides were extracted from gel onto a sample plate for MALDI-MS. Obtained peptides masses were determined in the positive ion reflector mode in a Voyager-DE STR mass spectrometer (Applied Biosystems). […] To determine the concentrations of YoeB-His and YefM polypeptides, tyrosine and tryptophan absorbance measurements in 0.1 M KOH were used. YefM concentration was calculated using the extinction coefficient of 2381 M^−1 cm^−1 at 293.2 nm for single tyrosine (4 tyr). YoeB-His concentration was calculated using extinction coefficient at 280 nm of 1507 M^−1 cm^−1 for single tyrosine (6 tyr) and 5377 M^−1 cm^−1 for single tryptophan (4 trp). […]

[5] = boiled 10 minutes, supernatant (FIG. 4D)

| Molecule | growth of bacteria overexpressing the polypeptide [2] | bacterial colony formation on overexpression [3] | further results |
| --- | --- | --- | --- |
| CC[C@H](C)[C@H](NC(=O)[C@@H](NC(=O)[C@@H](N)CCCNC(=N)N)[C@@H](C)O)C(=O)N[C@@H](CO)C(=O)N[C@@H](Cc1ccc(O)cc1)C(=O)N[C@@H](CO)C(=O)N[C@@H](CCC(=O)O)C(=O)N[C@@H](C)C(=O)N[C@@H](CCCNC(=N)N)C(=O)N[C@@H](CCC(N)=O)C(=O)N[C@@H](CC(N)=O)C(=O)N[C@@H](CC(C)C)C(=O)N[C@@H](CO)C(=O)O [YefM11-23] |  |  | binding of YoeB-GST to arrayed tridecamer peptide ([1]; high stringency, single amino-acid shift between peptides (FIG. 6B)): best binding; binding of YoeB-GST to arrayed tridecamer peptide ([1]; low stringency, two amino-acids shift between peptides (FIG. 6A)): positively identified |
| B1 | substantially reduced | inhibited |  |
| B2 | remained normal | unaffected |  |
| B3 |  |  | polypeptide melting point (TM) [4]: approximately 60 °C |
| B4 | substantially reduced | inhibited | solubility during boiling [5]: extraordinary solubility |
